The values that follow come from publication PMC11315126.

For the test, the target named is GST-TrbBWT (not stated | E. coli F plasmid) (UniProt P18035). As to the kind of experiment: SEC-MALS; SEC-MALS-SAXS; Superdex 200 10/300 Increase, 0.6 mL/min, 5.5 mg/mL loaded, 20 mM HEPES pH 7.0, 100 mM NaCl, 5% glycerol, 0.05% NP40, 20 °C.

In general, stoichiometry N refers to the number of molecules, sites or subunits per partner or assembly. Turning to GST-TrbBWT (from UniProt P18035 23-181), the stoichiometry N stood at 2.
